Source: US20140105900A1 (Amgen, published 2014)

Experiments:
[1] = target: T1, human IL-21 receptor on cells (human, UniProt Q9HBE5 20-538); test: cell-based or functional assay
[2] = target: cynomolgus IL-21 receptor on cells (cynomolgus monkey, UniProt G7Q0S8 41-559); test: cell-based or functional assay
[3] = target: T2, recombinant cynomolgus IL-21 receptor (cynomolgus monkey, UniProt G7Q0S8 41-253); test: Biacore, recombinant cyno IL-21R
T2 construct: construct not described; also called cyno IL-21R

[4] = target: T3, recombinant human IL-21 receptor (human, UniProt Q9HBE5 20-232); test: KinExA, recombinant human IL-21R
T3 construct: Used in Biacore and KinExA ('recombinant IL-21R', column 'hu'); also called recombinant IL-21R; hu IL-21R

[5] = target: T3, recombinant human IL-21 receptor; test: Biacore, recombinant human IL-21R
[6] = target: T1, human IL-21 receptor on cells; test: flow cytometry on Ramos cells, antibody titration, anti-huIgG detection
Method: Assay protocols ¹B/T co-culture. Mitomicin C-treated human T cells were cultured with B cells in anti-CD3 antibody pre-coated 96-well plates as described in Kuchen et al. (2007) J Immunol 179: 5886, incorporated herein by reference in its entirety. Supernatants were collected for IgA ELISA on day 6. ²B cell IgA production. Negatively selected human peripheral blood B cells were cultured in vitro with IL-21 and CD40L. On day 6, supernatants were collected for human IgG ELISA analysis. ³CD8 IFN-γ production. Purified human CD8 T cells were cultured with IL-21. IFN-γ was measured in the supernatant on day 3. ⁴Whole blood pSTAT3 stimulation. Human or cynomolgus monkey whole blood was pre-incubated with IL-21R mAbs titrations at 37° C. for 1 hr and stimulated with IL-21. Cells were fixed, permeabilized and stained for pSTAT3 and cell surface markers. ⁵Cell based KD measurement. Ramos cells (Human Burkitt's lymphoma) were incubated with a titration of IL-21R mAbs and bound antibody was detected with anti-huIgG by flow cytometry.

T1 sequence (Q9HBE5 20-538 limits assumed): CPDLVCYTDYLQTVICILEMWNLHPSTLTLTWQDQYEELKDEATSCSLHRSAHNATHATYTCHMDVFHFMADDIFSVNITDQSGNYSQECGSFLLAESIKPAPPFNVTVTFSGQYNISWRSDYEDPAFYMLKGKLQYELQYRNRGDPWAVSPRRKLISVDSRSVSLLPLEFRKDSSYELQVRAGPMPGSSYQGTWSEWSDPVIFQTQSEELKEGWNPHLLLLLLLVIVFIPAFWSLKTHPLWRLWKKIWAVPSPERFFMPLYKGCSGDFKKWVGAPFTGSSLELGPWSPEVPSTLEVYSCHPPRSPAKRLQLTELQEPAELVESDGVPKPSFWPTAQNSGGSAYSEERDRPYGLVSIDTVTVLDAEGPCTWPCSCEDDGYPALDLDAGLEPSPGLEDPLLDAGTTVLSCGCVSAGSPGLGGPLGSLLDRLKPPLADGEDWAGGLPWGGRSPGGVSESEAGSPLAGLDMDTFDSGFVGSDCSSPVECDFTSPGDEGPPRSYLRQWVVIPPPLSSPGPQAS
T3 sequence (Q9HBE5 20-232 limits assumed): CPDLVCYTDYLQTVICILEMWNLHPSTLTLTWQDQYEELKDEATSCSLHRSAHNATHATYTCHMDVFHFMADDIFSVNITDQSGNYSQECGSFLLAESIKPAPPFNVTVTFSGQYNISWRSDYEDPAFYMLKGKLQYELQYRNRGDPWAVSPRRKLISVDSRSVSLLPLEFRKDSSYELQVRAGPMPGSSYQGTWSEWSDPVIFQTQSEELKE

B cell (IgA) IC-50, exp1 [1]	B cell (IgA) IC-50, exp2 [1]	B/T co-culture (IgA) IC-50, exp1 [1]	B/T co-culture (IgA) IC-50, exp2 [1]	B/T co-culture (IgA) IC-50, exp3 [1]	B/T co-culture (IgA) IC-50, exp4 [1]	B/T co-culture (IgA) IC-50, exp5 [1]	CD8 T (IFNγ) IC-50, exp1 [1]	CD8 T (IFNγ) IC-50, exp2 [1]	hu pSTAT3 IC-50, B [1]	hu pSTAT3 IC-50, T [1]	cyno pSTAT3 IC-50, B [2]	cyno pSTAT3 IC-50, T [2]	Kd [3]	Kd [4]	Kd [5]	Kd [6]	Binder
22 pM	47 pM	29 pM	8 pM	17 pM	17 pM	14 pM	139 pM	48 pM	137 pM	33 pM	65 pM	286 pM	0.166 nM	0.026 nM	0.078 nM	0.016 nM	29G8 (antibody, V domains shown, Fully human antibody from XenoMouse, subcloned as a full IgG construct; also called anti-IL-21 receptor antibody 29G8; IL-21R mAb 29G8) VH: QVQLVESGGGVVQPGRSLRLSCAASGFTFSSYGMHWVRQAPGKGLEWVAVIWYDGSNKYYVDSVKGRFTISRDNSKNTLYLQMNSLRAEDTAVYYCARDRGYYDSGSYYMDYWGQGSLVTVSS VL: DIQMTQSPSSVSASVGDRVTITCRASQGISTWLAWYQQKPGKAPKLLIYAASILQRGVPSRFSGSGSGTDFTLTISSLQPEDFTTYYCQQANSFPRTFGQGTKVEIKR
18 pM	49 pM	16 pM	9 pM	11 pM	17 pM	10 pM	79 pM	27 pM	14 pM	8 pM	4 pM	13 pM	0.043 nM	0.006 nM	0.035 nM	0.015 nM	34H7 (antibody, V domains shown, Fully human antibody from XenoMouse, subcloned as a full IgG construct; also called anti-IL-21 receptor antibody 34H7; IL-21R mAb 34H7) VH: EVQLVQSGAELKKPGESLKISCKGSGYRFTSYWIGWVRQMPGKGLEWMGIIYPGDSDTRYSPSFQGQVTISADKSISTAYLQWHSLKVSDTAMYYCASPGYSTRWYHFDYWGQGTLVTVSS VL: EIVMTQSPATLSVSPGERATLSCRASQSISSSLVWYQQKPGQAPRLLIYGASTRATGIPARFSGSGSGTEFSLTISSLQSEDFAVYYCQQYNNWPLLTFGPGTKVDIKR
58 pM	31 pM	44 pM	31 pM	24 pM	24 pM	19 pM	203 pM	35 pM	36 pM	10 pM	9 pM	33 pM	0.078 nM	0.015 nM	0.016 nM	0.033 nM	30G3 (antibody, V domains shown, Fully human antibody from XenoMouse; also called anti-IL-21 receptor antibody 30G3; IL-21R mAb 30G3) VH: QVQLQESGPGLVKPSETLSLTCTVSGGSISSYYWSWIRQPAGKGLEWIGRIYTSGSTYFNPSLKSRVTMSVDTSKNQFSLKLSSVTAADTAVYYCARGRELLDYWGQGTLVTVSS VL: EVVLTQSPGTLSLSPGERATLSCRASQSFSSSYLAWYQQKPGQAPRLLIFGASSRATGIPDRFSGSGSGTDFTLTINRLEPEDFALYYCQQYGRSPLTFGGGTKVEIKR
